Starred links: 1 amine or outer side, 2 acyl side, 3 side chain; linkers in the order of their positions; H or OH if unused. Positions of bridges follow the written chain, without caps; N, C: chain ends. Non-standard residues stand in square brackets, D forms with d. Primed or numbered codes have the meaning given here. No end group written: not given here. *: point of attachment. Tyr(OMe)″ = O-methyl-tyrosine (Y-OMe, TyrOMe, O-Me-Tyr), COc1ccc(C[C@H](N[*:1])C(=O)[*:2])cc1; Tyr(Me)(4) = O-methyl-tyrosine (O-Me-Tyr, TyrMe), COc1ccc(C[C@H](N[*:1])C(=O)[*:2])cc1; Tyr(Me) = O-methyl-tyrosine (Y-OMe, O-Me-Tyr), COc1ccc(C[C@H](N[*:1])C(=O)[*:2])cc1; Tyr(Me)(3) = O-methyl-tyrosine (O-Me-Tyr), COc1ccc(C[C@H](N[*:1])C(=O)[*:2])cc1; Tyr(nHex) = O-n-hexyl-tyrosine, CCCCCCOc1ccc(C[C@H](N[*:1])C(=O)[*:2])cc1; Tyr(OMe)(3) = O-methyl-tyrosine, COc1ccc(C[C@H](N[*:1])C(=O)[*:2])cc1; Cys(β,β-pentamethylene) = O=C([C@@H](N[*:1])C1(S[*:3])CCCCC1)[*:2]; Phe(4-NO2) = N[C@@H](Cc1ccc([N+](=O)[O-])cc1)C(=O)O; Tyr(3,5-I2) = N[C@@H](Cc1cc(I)c(O)c(I)c1)C(=O)O; Cyclohexylacetyl(1-SH) = O=C(CC1(S)CCCCC1)*; Phe(4-I) = N[C@@H](Cc1ccc(I)cc1)C(=O)O; 1Nal = N[C@@H](Cc1cccc2ccccc12)C(=O)O; Cha = N[C@@H](CC1CCCCC1)C(=O)O; dPen = CC(C)(S)[C@@H](N)C(=O)O; Pen = CC(C)(S)[C@H](N)C(=O)O; code O = not defined here; Orn = NCCC[C@H](N)C(=O)O Where only a bound is given, the exact number is not on record here.

As usually defined, the IC50 is the midpoint of a concentration-inhibition curve. A lower IC50 goes with inhibition by little substance.

The chains are these.
B1: K(Pen)GRGDTPCA (peptide)
peptide: K[Pen]GRGDTPCA
modifications: disulfide 2-9
notes: 21 numbers stand for 20 rows, so none is assigned

T3 sequence (P06756 31-1048, chain 1 of 2): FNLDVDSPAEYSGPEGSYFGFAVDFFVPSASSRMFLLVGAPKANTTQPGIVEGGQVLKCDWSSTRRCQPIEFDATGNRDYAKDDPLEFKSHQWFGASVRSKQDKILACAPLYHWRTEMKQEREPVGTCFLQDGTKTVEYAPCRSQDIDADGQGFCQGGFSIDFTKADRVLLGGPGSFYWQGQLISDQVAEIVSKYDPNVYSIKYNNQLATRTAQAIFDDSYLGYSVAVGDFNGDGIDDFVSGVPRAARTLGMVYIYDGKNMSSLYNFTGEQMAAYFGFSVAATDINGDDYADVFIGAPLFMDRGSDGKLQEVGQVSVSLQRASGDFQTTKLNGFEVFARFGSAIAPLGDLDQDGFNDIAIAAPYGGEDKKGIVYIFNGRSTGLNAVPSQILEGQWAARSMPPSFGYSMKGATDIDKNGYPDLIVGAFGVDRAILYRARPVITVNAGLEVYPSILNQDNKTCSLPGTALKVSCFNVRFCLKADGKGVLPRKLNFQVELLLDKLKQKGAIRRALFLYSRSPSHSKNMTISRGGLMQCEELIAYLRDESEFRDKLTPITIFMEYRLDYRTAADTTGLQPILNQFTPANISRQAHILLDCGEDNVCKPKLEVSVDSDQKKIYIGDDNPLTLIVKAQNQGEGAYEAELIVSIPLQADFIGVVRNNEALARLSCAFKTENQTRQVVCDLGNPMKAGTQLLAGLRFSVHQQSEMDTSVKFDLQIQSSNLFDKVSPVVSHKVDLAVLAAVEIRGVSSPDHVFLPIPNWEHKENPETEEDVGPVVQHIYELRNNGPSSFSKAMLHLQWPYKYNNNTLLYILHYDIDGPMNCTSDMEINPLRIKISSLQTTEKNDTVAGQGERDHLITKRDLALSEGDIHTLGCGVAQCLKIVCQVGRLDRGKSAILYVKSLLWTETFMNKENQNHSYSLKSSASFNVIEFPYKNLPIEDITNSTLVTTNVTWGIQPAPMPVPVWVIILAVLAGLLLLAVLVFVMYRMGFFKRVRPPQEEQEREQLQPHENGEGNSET
T3 sequence (P05106 27-788, chain 2 of 2): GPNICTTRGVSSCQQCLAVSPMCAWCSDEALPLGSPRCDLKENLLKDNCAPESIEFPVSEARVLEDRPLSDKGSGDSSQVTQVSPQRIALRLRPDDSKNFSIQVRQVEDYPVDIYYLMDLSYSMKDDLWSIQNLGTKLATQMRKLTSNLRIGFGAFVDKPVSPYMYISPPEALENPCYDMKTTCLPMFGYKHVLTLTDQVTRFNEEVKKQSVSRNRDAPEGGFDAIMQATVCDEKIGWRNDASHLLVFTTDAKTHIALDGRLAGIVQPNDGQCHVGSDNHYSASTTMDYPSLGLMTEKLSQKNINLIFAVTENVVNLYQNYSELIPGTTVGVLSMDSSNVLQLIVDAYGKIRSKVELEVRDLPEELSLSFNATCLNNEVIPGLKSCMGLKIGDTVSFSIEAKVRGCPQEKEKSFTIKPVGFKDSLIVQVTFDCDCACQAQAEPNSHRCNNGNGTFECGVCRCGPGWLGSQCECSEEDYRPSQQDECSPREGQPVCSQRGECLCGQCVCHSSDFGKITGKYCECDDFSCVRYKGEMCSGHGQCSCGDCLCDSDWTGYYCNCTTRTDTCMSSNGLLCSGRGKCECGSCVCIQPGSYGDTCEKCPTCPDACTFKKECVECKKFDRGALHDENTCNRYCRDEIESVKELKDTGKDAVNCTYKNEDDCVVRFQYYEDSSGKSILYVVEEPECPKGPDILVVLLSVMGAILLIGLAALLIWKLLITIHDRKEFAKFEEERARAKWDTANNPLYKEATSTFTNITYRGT

The first experiment concerns the target T1, Platelet glycoprotein IIb/IIIa (human, UniProt P08514 32-1039; P05106 27-788). The experiment is described as follows: cell-based or functional assay.
As to R[Cys(β,β-pentamethylene)]GHRGDFRCR (disulfide 2-10 (inferred)) [R(Pmc)GHRGDFRCR], the “IC50, ADP-Stimulated Aggregation” value was determined as 0.62 µM. Take R[Cys(β,β-pentamethylene)]GHRGDVRCR (disulfide 2-10; not fully specified; printed as R(Pmc)GHRGDVRCR) [R(Pmc)GHRGDVRCR]: the “IC50, ADP-Stimulated Aggregation” value was found to be 0.69 µM. As for R[Cys(β,β-pentamethylene)]GHRGDYRCR (disulfide 2-10) [R(Pmc)GHRGDYRCR], the “IC50, ADP-Stimulated Aggregation” value was found to be 1 µM. On to R[Cys(β,β-pentamethylene)]RGD[Cha]CR (disulfide 2-7) [R(am-Pmp)RGD(Cha)CR], for which the “IC50, ADP-Stimulated Aggregation” value is below 200 µM. With G[Pen]GHRGDTRCA (disulfide 2-10) [G(Pen)GHRGDTRCA], the “IC50, ADP-Stimulated Aggregation” value worked out at 11.3 µM and the “IC50, Thrombin Stimulated Aggregation” value was 17 µM. In the case of L[Pen]GHRGDLRCA (disulfide 2-10) [L(Pen)GHRGDLRCA], the “IC50, ADP-Stimulated Aggregation” value amounted to 10.5 µM. On to R[Orn]GHRGDLRDR [R(orn)GHRGDLRDR], for which the “IC50, ADP-Stimulated Aggregation” value was below 200 µM.

On to G[Pen]YRGDSPCA (disulfide 2-9) [G(Pen)YRGDSPCA], for which the “IC50, ADP-Stimulated Aggregation” value turned out to be 47 µM. Still for that read-out and setting: to XGHRGDLRXA (not fully specified; t-but-am-Pmp at 1; Pen at 9) [(t-but-am-Pmp)GHRGDLR(Pen)A] belongs 89 µM. R[Pen]GRGDLRCA (disulfide 2-9) [R(Pen)GRGDLRCA]: the “IC50, ADP-Stimulated Aggregation” value worked out at 16 µM and the “IC50, Thrombin Stimulated Aggregation” value turned out to be 13 µM. For the molecule FRGDSPDG, the “IC50, ADP-Stimulated Aggregation” value worked out at 110 µM.

Consider LRGDSPDG, for which the “IC50, ADP-Stimulated Aggregation” value was found to be 150 µM. Same read-out and setting: with R[Pen]GHRGDTRCR (disulfide 2-10) [R(Pen)GHRGDTRCR] the figure was 8.8 µM.

Turning to R[Pen]GRGDSRCA (disulfide 2-9) [R(Pen)GRGDSRCA], the “IC50, ADP-Stimulated Aggregation” value was found to be 12 µM and the “IC50, Thrombin Stimulated Aggregation” value was 12 µM. G[Pen]FRGDSFCA (disulfide 2-9) [G(Pen)FRGDSFCA]: the “IC50, ADP-Stimulated Aggregation” value was below 200 µM. On the same count and under the same terms, with G[Pen]GRGDSFCA (disulfide 2-9) [G(Pen)GRGDSFCA] the figure was 115 µM. As to G[Pen]LRGDSPCA (disulfide 2-9) [G(Pen)LRGDSPCA], the “IC50, ADP-Stimulated Aggregation” value was determined as 415 µM and the “IC50, Thrombin Stimulated Aggregation” value stood at 308 µM. Turning to G[Pen]GRGDRPCA (disulfide 2-9) [G(Pen)GRGDRPCA], the “IC50, ADP-Stimulated Aggregation” value came out at 22.3 µM.

With R[Pen]GRGDTPCA (disulfide 2-9) [R(Pen)GRGDTPCA], the “IC50, ADP-Stimulated Aggregation” value is 7 µM. For the molecule G[Pen]GRGDTPCA (disulfide 2-9) [G(Pen)GRGDTPCA], the “IC50, ADP-Stimulated Aggregation” value came to 22.3 µM. In the case of R[Pen]GRGDWPCR (disulfide 2-9) [R(Pen)GRGDWPCR], the “IC50, Thrombin Stimulated Aggregation” value stood at 0.53 µM.

For the molecule G[Pen]LRGDSRCA (disulfide 2-9) [G(Pen)LRGDSRCA], the “IC50, ADP-Stimulated Aggregation” value was 41 µM and the “IC50, Thrombin Stimulated Aggregation” value worked out at 49 µM. Turning to G[Pen]LRGDTPCA (disulfide 2-9) [G(Pen)LRGDTPCA], the “IC50, ADP-Stimulated Aggregation” value is 86 µM.

Consider R[Pen]GRGDTPCR (disulfide 2-9) [R(Pen)GRGDTPCR], for which the “IC50, Thrombin Stimulated Aggregation” value came to 2 µM. For [t‑butylAmino‑Pmp]GHRGDLRCA (disulfide 1-9; also: place of tert-butyl and chirality not given here) [(t-butylAmino-Pmp) GHRGDLRCA], the “IC50, ADP-Stimulated Aggregation” value was 130 µM.

The target in a further experiment is T1, Platelet glycoprotein IIb/IIIa. The experiment is described as follows: competition, ELISA or liposome assay. (In general: An ELISA detects its analyte on a solid surface through an enzyme-linked reagent.)
R[Cys(β,β-pentamethylene)]GHRGDWRCR (disulfide 2-10; not fully specified; printed as R(am-Pmp)GHRGDWRCR-1) [R(am-Pmp)GHRGDWRCR-1]: the IC50 is 60 nM. On the same count and under the same terms, to R[Cys(β,β-pentamethylene)]GHRGDLRCR (disulfide 2-10; not fully specified; printed as R(am-Pmp)GHRGDLRCR-1) [R(am-Pmp)GHRGDLRCR-1] belongs 400 nM. On the same count and under the same terms, with R[Cys(β,β-pentamethylene)]GHRGD[Tyr(Me)][code O]CR (disulfide 2-10; reading uncertain; also: printed as R(Pmc)GHRGD(O-Me-Tyr)OCR) [R(Pmc)GHRGD(O-Me-Tyr)OCR] the figure was 7 nM.

In the next experiment the target is T2, Fibronectin receptor (human, UniProt P08648 42-1049; P05556 21-798).
T2 construct: mature; Purified on a 110 kd fibronectin fragment column; also called Fn-R; FnR
T2 sequence (P08648 42-1049, chain 1 of 2): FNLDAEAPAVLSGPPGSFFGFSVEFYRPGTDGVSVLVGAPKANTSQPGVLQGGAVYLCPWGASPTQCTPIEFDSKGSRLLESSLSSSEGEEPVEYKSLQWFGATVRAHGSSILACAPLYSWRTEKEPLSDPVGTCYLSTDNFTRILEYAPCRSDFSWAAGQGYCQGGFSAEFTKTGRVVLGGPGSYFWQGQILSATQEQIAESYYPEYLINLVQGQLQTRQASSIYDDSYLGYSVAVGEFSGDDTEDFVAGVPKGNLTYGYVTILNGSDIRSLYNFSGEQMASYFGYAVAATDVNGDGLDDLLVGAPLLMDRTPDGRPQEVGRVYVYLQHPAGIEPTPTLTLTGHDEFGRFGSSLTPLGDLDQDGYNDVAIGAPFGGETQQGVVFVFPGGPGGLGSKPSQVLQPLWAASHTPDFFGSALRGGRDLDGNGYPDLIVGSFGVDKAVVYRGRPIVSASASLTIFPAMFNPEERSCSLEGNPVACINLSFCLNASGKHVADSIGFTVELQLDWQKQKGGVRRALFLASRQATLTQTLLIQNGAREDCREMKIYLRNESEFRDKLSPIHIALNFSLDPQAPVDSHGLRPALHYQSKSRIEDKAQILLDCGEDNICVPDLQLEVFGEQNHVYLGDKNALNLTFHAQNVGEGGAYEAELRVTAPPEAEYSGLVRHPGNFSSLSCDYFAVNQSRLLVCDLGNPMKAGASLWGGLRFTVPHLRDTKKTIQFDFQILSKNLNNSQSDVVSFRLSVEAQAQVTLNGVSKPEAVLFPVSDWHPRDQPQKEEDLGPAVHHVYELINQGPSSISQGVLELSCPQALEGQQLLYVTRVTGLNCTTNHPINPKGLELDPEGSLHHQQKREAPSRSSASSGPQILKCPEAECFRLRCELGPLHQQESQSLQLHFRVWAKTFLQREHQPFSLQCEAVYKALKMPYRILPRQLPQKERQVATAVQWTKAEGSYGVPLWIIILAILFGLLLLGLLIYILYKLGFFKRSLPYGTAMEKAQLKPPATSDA
T2 sequence (P05556 21-798, chain 2 of 2): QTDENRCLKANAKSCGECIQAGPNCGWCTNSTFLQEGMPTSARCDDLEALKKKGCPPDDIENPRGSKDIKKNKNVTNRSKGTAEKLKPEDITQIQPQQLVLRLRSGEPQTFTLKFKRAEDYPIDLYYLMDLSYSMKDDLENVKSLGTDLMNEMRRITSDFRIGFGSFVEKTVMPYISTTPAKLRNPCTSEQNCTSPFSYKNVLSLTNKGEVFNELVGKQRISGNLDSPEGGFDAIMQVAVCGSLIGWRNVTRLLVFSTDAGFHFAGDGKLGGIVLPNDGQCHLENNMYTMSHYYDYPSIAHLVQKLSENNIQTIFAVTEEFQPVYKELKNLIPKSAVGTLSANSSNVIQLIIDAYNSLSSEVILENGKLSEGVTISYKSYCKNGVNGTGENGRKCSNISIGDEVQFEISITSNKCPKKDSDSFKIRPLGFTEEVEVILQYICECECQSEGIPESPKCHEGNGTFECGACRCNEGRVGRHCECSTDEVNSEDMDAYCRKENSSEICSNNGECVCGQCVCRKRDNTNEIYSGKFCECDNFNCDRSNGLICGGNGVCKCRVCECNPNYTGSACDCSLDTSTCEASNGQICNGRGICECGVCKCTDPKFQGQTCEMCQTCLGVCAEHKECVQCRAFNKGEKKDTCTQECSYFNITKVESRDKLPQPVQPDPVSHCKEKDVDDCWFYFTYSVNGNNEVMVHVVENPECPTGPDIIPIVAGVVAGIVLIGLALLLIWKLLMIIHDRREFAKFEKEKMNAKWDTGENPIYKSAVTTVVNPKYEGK
The experiment in a line: competitive ELISA, fibronectin coated.
On to R[Cys(β,β-pentamethylene)]GHRGD[Tyr(nHex)]RCR (disulfide 2-10) [R(Pmc)GHRGD(O-n-hexyl-Tyr)RCR], for which the IC50 worked out at 2 µM. The same measure, in the same setting: with R[Pen]GHRGD[1Nal]RCR (disulfide 2-10) [R(Pen)GHRGD(1-Nal)RCR] the figure was 10 µM; with FRGDSPDG, 2.4 µM. In turn, R[Pen]GRGDTPCA (disulfide 2-9) [R(Pen)GRGDTPCA] yielded a half-maximal inhibitory concentration (IC50) of 0.08 µM.

B1: the 50% inhibitory concentration (IC50) came to 0.03 µM. The same measure, in the same setting: to R[Cys(β,β-pentamethylene)]GRGDTPCA (disulfide 2-9) [R(AminoPmp)GRGDTPCA] belongs 0.03 µM; to R[Cys(β,β-pentamethylene)]GRGDWPCR (disulfide 2-9) [R(am-Pmp)GRGDWPCR], 0.05 µM; to D[Cys(β,β-pentamethylene)]GHRGD[Tyr(OMe)″]RCR (disulfide 2-10) [D(Pmc)GHRGD(O-Me-Tyr)RCR], 10 µM.

The molecule R[Cys(β,β-pentamethylene)]GHRGD[Tyr(Me)]KCR (disulfide 2-10) [R(Pmc)GHRGD(O-Me-Tyr)KCR] displayed an IC50 of 10 µM.

For T[Cys(β,β-pentamethylene)]GHRGD[Tyr(OMe)(3)]RCR (disulfide 2-10; not fully specified; printed as T(Pmc)GHRGD(O-Me-Tyr)RCR) [T(Pmc)GHRGD(O-Me-Tyr)RCR], the IC50 stood at 10 µM.

As to G[Cys(β,β-pentamethylene)]GHRGD[Tyr(Me)(3)]RCR (disulfide 2-10) [G(Pmc)GHRGD(O-Me-Tyr)RCR], the IC50 was 10 µM. The same measure, in the same setting: with R[dPen]NPRGD[Tyr(OMe)(3)]RCR (disulfide 2-10) [R(dPen)NPRGD(O-Me-Tyr)RCR] the figure was 10 µM.

A further experiment has as its target T3, Vitronectin receptor (human, UniProt P06756 31-1048; P05106 27-788).
T3 construct: mature; also called Vn-R; VnR
The experiment is described as follows: competition, ELISA or liposome assay, vitronectin coated.
Take R[Cys(β,β-pentamethylene)]GHRGDVRCR (disulfide 2-10; not fully specified; printed as R(Pmc)GHRGDVRCR) [R(Pmc)GHRGDVRCR]: the IC50 turned out to be 2000 nM.

R[Cys(β,β-pentamethylene)]GHRGD[Tyr(3,5-I2)]RCR (disulfide 2-10) [R(Pmc)GHRGD(3,5-diiodo-Tyr)RCR] displayed an IC50 of 900 nM. For FRGDSPDG, the IC50 is 40 nM. On the same count and under the same terms, with LRGDSPDG the figure was 200 nM. For YRGDSPDG, the IC50 came out at 80 nM. The same measure, in the same setting: with G[Pen]FRGDSFCA (disulfide 2-9) [G(Pen)FRGDSFCA] the figure was 50 nM.

G[Pen]GRGDSFCA (disulfide 2-9) [G(Pen)GRGDSFCA] registered an IC50 of 20 nM. On the same count and under the same terms, to R[Pen]GRGDTPCA (disulfide 2-9) [R(Pen)GRGDTPCA] belongs 30 nM; to R[Pen]GRGDTPCR (disulfide 2-9) [R(Pen)GRGDTPCR], 10 nM; to R[Cys(β,β-pentamethylene)]GHRGD[Phe(4-NO2)]KCR (disulfide 2-10) [R(Pmc)GHRGD(p-nitro-Phe)KCR], 10000 nM. For the molecule R[Cys(β,β-pentamethylene)]GHRGD[Phe(4-I)]KCR (disulfide 2-10) [R(Pmc)GHRGD(p-iodo-Phe)KCR], the IC50 was found to be 8000 nM. On the same count and under the same terms, to R[Cys(β,β-pentamethylene)]GHRGD[Tyr(Me)]KCR (disulfide 2-10) [R(Pmc)GHRGD(O-Me-Tyr)KCR] belongs 10000 nM; to T[Cys(β,β-pentamethylene)]GHRGD[Tyr(OMe)(3)]RCR (disulfide 2-10; not fully specified; printed as T(Pmc)GHRGD(O-Me-Tyr)RCR) [T(Pmc)GHRGD(O-Me-Tyr)RCR], 10000 nM.

G[Cys(β,β-pentamethylene)]GHRGD[Tyr(Me)(3)]RCR (disulfide 2-10) [G(Pmc)GHRGD(O-Me-Tyr)RCR] displayed an IC50 of 10000 nM. Same read-out and setting: to R[Cys(β,β-pentamethylene)]GHRGD[Tyr(Me)(4)]RCR (disulfide 2-10; also: am-Pmp2 from racemic mixture) [R(am-Pmp)GHRGD(TyrMe)RCR] belongs 1000 nM. Same read-out and setting: with [Cyclohexylacetyl(1-SH)]GHRGDLRCA (disulfide 1-9) [(Pmp)GHRGDLRCA] the figure was 10000 nM.

These data come from patent US6521594 (LA JOLLA CANCER RESEARCH FOUNDATION, dated 2003).
